Consider one molecule from patent publication US20180208655A1 (VENTANA MEDICAL SYSTEMS, published 2018).

The experiment addresses T1, human GPNMB (transmembrane glycoprotein NMB) (human, UniProt Q14956 23-572).
T1 construct: Endogenous GPNMB in human FFPE tissues and cells (IHC), A375 cell lysate (Western blot) and A375 cells (flow cytometry)
T1 sequence: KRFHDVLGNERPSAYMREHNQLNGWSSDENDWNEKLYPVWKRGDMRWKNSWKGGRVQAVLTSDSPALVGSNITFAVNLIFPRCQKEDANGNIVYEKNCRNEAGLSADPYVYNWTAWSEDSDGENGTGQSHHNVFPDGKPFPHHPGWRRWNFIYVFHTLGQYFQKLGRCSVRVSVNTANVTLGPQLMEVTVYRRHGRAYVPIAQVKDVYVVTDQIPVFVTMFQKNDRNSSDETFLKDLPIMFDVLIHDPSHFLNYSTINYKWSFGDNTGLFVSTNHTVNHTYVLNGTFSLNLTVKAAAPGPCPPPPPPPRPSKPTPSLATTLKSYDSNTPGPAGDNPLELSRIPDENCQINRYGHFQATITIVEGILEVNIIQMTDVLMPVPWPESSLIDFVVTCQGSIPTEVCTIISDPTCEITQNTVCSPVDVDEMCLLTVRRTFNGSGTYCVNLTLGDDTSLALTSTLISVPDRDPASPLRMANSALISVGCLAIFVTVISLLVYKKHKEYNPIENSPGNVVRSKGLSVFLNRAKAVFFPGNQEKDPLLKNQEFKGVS
Description: IHC screening of recombinantly expressed clones (after ELISA screening on the GPNMB antigen).

B1: rabbit anti-human GPNMB monoclonal antibody (SP299) (antibody, V domains shown)
VH: QSLEESGGGLVKPGGTLTLICTVSGIDLSTYGVIWVRQAPREGLEWIGFITRSGTTDYAAWANGRFTISKTSTTVDLKIASLTAADTATYFCARGGYRFNLWGHGTLVTVSS
VL: DPVMTQTPASVSEPVGGTVTIKCQASQSIYSYLAWYQQKPGQPPKLLIYKASSLESGVPSRLSGSGSGTEFTLTISDLECADAATYYCQGGYISTTVSFGYGFGGGTEVVVK
notes: also called anti-GPNMB antibody SP299; Anti-GPNMB monoclonal antibody (SP299)
Consider B1, for which the binding result was “binds”.
